Assay results as given in patent CN112125972A (SINOCELLTECH LTD, dated 2020).

Assays:
Test in all cases: double-antibody sandwich ELISA, R001 as capture and HRP-R001 as detection, mixture of HPV types
HPV45 VLP = target: T1, HPV45 VLP (Human papillomavirus type 45, UniProt P36741 27-539)
T1 construct: also called HPV45完整VLP蛋白
T1 sequence: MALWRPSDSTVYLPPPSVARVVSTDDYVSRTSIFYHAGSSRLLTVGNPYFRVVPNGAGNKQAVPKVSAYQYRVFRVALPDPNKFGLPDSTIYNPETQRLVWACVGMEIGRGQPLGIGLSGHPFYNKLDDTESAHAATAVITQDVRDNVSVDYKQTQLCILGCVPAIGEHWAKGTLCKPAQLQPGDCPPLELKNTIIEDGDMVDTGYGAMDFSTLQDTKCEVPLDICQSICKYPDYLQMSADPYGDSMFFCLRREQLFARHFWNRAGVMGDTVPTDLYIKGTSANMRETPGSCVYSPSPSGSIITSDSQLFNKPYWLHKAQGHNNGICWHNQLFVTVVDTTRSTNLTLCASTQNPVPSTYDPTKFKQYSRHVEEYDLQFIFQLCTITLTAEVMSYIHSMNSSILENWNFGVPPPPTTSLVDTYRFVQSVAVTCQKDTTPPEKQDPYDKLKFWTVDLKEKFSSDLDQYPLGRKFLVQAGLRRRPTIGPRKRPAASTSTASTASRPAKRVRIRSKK

HPV51 VLP = target: T2, HPV51 VLP (Human papillomavirus type 51, UniProt P26536 1-504)
T2 construct: also called HPV51完整VLP蛋白
T2 sequence: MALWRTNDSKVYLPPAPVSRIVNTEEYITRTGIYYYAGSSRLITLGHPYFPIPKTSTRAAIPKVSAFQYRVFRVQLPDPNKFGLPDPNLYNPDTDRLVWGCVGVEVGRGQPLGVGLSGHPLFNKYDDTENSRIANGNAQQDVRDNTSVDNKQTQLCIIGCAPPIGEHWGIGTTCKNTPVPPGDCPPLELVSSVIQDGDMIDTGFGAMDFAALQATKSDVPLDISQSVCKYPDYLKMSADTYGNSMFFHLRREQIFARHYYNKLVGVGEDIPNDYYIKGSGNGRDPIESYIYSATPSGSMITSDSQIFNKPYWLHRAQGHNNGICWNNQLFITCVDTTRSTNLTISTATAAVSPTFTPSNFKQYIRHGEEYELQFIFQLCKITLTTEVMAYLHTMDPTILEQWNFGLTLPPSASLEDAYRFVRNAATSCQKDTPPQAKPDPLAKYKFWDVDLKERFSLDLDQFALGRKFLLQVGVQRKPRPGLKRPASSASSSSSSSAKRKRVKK

HPV11 VLP = target: T3, HPV11 VLP (Human papillomavirus type 11, UniProt P04012 1-501)
T3 construct: also called HPV11完整VLP蛋白
T3 sequence: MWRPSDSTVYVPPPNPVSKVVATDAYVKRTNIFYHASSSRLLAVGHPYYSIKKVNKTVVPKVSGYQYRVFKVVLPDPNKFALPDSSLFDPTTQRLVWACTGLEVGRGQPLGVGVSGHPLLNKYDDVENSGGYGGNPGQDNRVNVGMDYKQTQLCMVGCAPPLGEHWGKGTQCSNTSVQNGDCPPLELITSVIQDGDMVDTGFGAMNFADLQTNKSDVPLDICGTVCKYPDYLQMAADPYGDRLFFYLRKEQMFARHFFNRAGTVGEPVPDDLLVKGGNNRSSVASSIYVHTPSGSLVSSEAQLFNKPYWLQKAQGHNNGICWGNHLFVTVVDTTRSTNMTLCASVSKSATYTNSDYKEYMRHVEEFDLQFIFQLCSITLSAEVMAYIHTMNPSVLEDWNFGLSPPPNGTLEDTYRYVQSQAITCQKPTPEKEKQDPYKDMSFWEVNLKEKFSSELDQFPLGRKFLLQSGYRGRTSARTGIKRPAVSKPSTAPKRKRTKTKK

HPV33 VLP = target: T4, HPV33 VLP (Human papillomavirus type 33, UniProt P06416 1-499)
T4 construct: also called HPV33完整VLP蛋白
T4 sequence: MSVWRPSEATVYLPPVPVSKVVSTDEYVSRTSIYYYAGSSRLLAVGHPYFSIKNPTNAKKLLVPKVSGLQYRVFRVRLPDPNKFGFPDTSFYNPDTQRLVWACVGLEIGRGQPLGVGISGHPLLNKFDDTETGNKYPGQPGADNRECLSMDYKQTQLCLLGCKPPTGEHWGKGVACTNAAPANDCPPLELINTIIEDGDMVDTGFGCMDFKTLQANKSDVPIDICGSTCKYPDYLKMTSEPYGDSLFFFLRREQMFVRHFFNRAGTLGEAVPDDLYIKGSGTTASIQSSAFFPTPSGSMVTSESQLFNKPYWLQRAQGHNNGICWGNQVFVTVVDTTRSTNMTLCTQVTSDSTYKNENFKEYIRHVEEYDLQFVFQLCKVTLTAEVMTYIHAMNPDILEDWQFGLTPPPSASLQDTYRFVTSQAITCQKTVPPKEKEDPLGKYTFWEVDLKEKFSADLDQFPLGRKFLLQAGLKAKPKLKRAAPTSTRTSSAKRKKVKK

HPV35 VLP = target: T5, HPV35 VLP (Human papillomavirus type 35, UniProt P27232 1-502)
T5 construct: also called HPV35完整VLP蛋白
T5 sequence: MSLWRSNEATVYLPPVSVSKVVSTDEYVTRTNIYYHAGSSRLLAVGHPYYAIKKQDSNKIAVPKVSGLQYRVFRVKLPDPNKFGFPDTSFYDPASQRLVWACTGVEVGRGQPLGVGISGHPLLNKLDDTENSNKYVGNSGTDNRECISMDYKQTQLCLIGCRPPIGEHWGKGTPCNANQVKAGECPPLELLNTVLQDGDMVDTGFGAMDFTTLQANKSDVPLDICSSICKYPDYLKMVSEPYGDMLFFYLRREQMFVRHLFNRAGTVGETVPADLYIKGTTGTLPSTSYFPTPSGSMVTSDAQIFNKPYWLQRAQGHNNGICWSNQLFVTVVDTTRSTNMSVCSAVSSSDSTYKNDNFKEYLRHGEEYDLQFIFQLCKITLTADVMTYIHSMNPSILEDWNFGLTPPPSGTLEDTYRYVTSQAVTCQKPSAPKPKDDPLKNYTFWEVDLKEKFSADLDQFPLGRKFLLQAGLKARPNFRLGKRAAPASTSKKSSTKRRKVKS

B1: HPV 16 R001 (antibody, V domains shown)
VH: QSVKESEGRLVTPGTPLTLTCTASGFTMSRYHMTWVRQAPGKGLEWIGIIYARNSDTYYANWAKGRFTISKTSTTVDLKITSPTIEDTATYFCARVDSDSSGAFDRLDLWGQGTLVTVSS
VL: DPMLTQTAASVEVAVGGTVTIKCQASQSIGGYLSWYQQKPGQRPKLLIYRASTLASGVPSRFKGSGSGTEYTLTFSGVECADAAAYYCQQGYTSSDINNAFGGGTEVVVK
notes: An HRP-labelled form served as detection antibody in the sandwich ELISA; also called HPV16.001; 单克隆抗体HPV 16 R001
binding result (HPV45 VLP): no binding (tested: 50ng/mL，25ng/mL，12.5ng/mL)
binding result (HPV51 VLP): no binding (tested: 50ng/mL，25ng/mL，12.5ng/mL)
binding result (HPV11 VLP): no binding (tested: 50ng/mL，25ng/mL，12.5ng/mL)
binding result (HPV33 VLP): no binding (tested: 50ng/mL，25ng/mL，12.5ng/mL)
binding result (HPV35 VLP): no binding (tested: 50ng/mL，25ng/mL，12.5ng/mL)
